# Assay results: the DeepSol protein solubility set
# Assay: soluble on expression in E. coli; label from the status in PepcDB or PDB records
row,Sequence,soluble on expression in E. coli
1,MKWNLDPSHTSIDFKVRHMGIASVRGSLKVLSGSVETDEAGRPIQVEAVIDAASIATGEPQRDGHLRSADFLHAEQYPEIRFVSTQIEPLGGNRYRIQGNLTIRDITKPVTLEAEVSAPIKDPWGMQRVAASASGQINRKDWNLTWNQVLELGALLVGEEVKFNLEVEAVAPAPVAAQ,soluble
2,MKYDLKYLSVPLPEEIQRVKEFGDFASADIAIDFWLTKELPQALKERLIIEKDVIKMMRMNEYPHSFAKADQMMRDTFQDYQTEELIRLKETGLVDWVYIDGEPYFQLRFLANLIKTNAAYVARLREAESNQLEILRKKELKENIEQMQKNGGRKVRTTIKATIQVKKEFERPGERVRVHLPLPKACQQQSEIEILATSPEATYIAAEDAPQRTLCFETILKENQTFTVEYCYVNRMVYQQLEENNVDKMQPSFDLEEQLPHIRFTPYLRNLADEIVGDESNPLKKARLIYDFVTTKIHYSFMREYFTISNISEYAATNLKGDCGVQAILFITLCRIAGIPAKWQSGLYVSTHYTGCHDWAQFYIKPYGWLFADLSFGGGAYRDGDRQRWNHYFGNLDVFRMVANSEIQADFQPAKMQLRADPIDNQRGEFEYENEGLPYACLIVSQERLSMEELPFD,not soluble
3,MKYFMGPHVWQRTIADLEALGHQRVDTFEQAEAYINTEPRPLRIPTIPESVGFVQHCFTGVNQLIDAHVITETGVRWANMAGGFAQPVAESALGLMLSQAHHHKAFALAGTWRVARELDRIQQWLHSVGEPRCVVIFGAGGIAKELIRLLEPFGMHVIAVNRSGRSVAGADETFAMKDAQGLWSRGDFIVNILPLTQETKGLVDRDVFAQMKPSAIFINVGRGATVVTDDLVDALQRGVIAGAGLEVVDPEPLPDSHALHSMPNCTITPHMAASDHVAELHVARIFDANAQAFTRGETMPTEVNPHLGY,not soluble
4,MKYISPGFVDAHSHIGMIPDGLEWEFQEANDFYSPIAPHLRAVDGFDPYDEAFKEAIAGGVTTVATGPGSANVMGGIGLLAKTYEEGFEKIIKPEAFIKMALGPKRPREYKSKYPYPTTRMGTVALMRTWFKRAREFMEGKIKTDNIDEEEIEMLRLLARALKREIQVKIHLSTSPDEIYAAIRIIKEFNLNATIDHAFGSQLVADMLSREGIPVIYGPPMITRIASFFRYVDDKAPVLLFKKGVNVSIMTDHPVLPEKHLRLLAAVVARNGLSLDDALKLITINPAKALGIDRFVGSLEHHHHHH,not soluble
5,MKYLGLCTDLYELTMAQSYLYEGKTGTAVFSLFVRKLPEKRNFLISAGLETLVERIKNFKFGDEEIKYLKSLGIFKDDFLDYLKDFEFSGNVYAIPEGRIVFQNEPLVQVEAPIPEAQLLETLVINTIQFETMIASKAVRSYLVAKGKKLVDFGFRRAHGLEAGILAARASYIAGFDGTSNVEAGREFGIPVVGTMAHSYVMIFDKEEDAFRAFAKLYPKNAIFLIDTYDTIEAAKKVVDLAKEGVPVVGVRIDSGDIVKLSKEVRKILDENGLKNVRIIVSGGVDEYKIKEWFDRGAPIDAFGVGTKFITSADAPYFDIAYKLVEYEGKPKYKLSPGKKTFPYKRQVYRYYENGKMKYDETAKWESKREGEPLVELVMKNGKLIKELPSLKEIREVVMSELEKLPENYKDITKHYEYEVKILDWE,soluble
6,MKYLPQQDPQVFAAIEQERKRQHAKIELIASENFVSRAVMEAQGSVLTNKYAQGYPGRRYYGGCEYVDIVEELARERAKQLFGAEHANVQPHSGAQANMAVYFTVLEHGDTVLGMNLSHGGHLTHGSPVNFSGVQYNFVAYGVDPETHVIDYDDVREKARLHRPKLIVAAASAYPRIIDFAKFREIADEVGAYLMVDMAHIAGLVAAGLHPNPVPYAHFVTTTTHKTLRGPRGGMILCQEQFAKQIDKAIFPGIQGGPLMHVIAAKAVAFGEALQDDFKAYAKRVVDNAKRLASALQNEGFTLVSGGTDNHLLLVDLRPQQLTGKTAEKVLDEVGITVNKNTIPYDPESPFVTSGIRIGTAAVTTRGFGLEEMDEIAAIIGLVLKNVGSEQALEEARQRVAALTDGG,soluble
7,MKYRDLREFLNLLEQQGELVRVKQEIDPYLEMAEIADRTLRKAGPAILFENPKGYQMPVLCNLFGTPKRVALGMGQENTQALRELGKLLAFLKEPEPPKGFKELLGQLPQWKQILNMPSKTRDNAACQQIVIEGDAVNLYDLPIMHCHEEDIAPLITWGLTITQGPHKKRQNLGIYRQQLIAKNKLIMRWLSHRGGALDFQEWKATYPDKPFPVSVAIGADPATILAAVTPIPDTLPEYAFAGLLRGHKTEVIKSISNQLDVPASAEIVLEGYIDVNETALEGPYGDHTGYYNEQEYFPVFTVTHITMRKDAIYHSTYTGRPPDEPAVLGEALNEVFIPILQKQFPEIVDFYLPPEGCSYRLAVVTIKKQYAGHAKRVMMGVWSFLRQFMYTKFVIVCDDDINARNWKDVIWAITTRCDPSRDTTLIENTPIDYLDFASPIAGLGSKMGIDATNKWNGETIREWGKPITKNQQVVQHIDELWDQLGLLEHHHHHH,not soluble
8,MKYTLDQLNVYNPDGKAKSISIIHGLTISTSNTNSDTTGLTGCLYLTTKNQANDPSFSVYVIKQAQTVSTTQPNSTVVILNTELNPDISNYDQPLKTSYVTNINQSPDSDLFFQWDIPASGWTQKDVTNQFFENPIILETFDWNTMKKNFTRQFFDHIEPLQIGVKYWYFTASKPVSMTMESKYVSNLMYTATSVNTTGLIVNDFVFLEHVVNFPLDLTRVRTIGTLISAFPESSTINFVYKDDQSSSRQSFSTEQTHSLFDTYMQASSLTINATALIPGRFFCQYFGVTGDLLPPGTSTPSTPSTVETTMPSTTRISTTPSAAPHEFQLICFIIAFLLVL,not soluble
9,MKYVASFSGGKDSAAMLLLILEKRLLLDEIVFIDTGLEFKEIYDIIDDFEKRINFKITRIKAEKTFEEYFYTVNKQGKRKGQIWGFPYTLGAWCNSRLKLAPANKYFNSIGEHKRYIGIAFDEPSRYRRLEKNCIAPLYEAKMTEKDCLKYLEKKGFYYDIHHRFKRTGCY,not soluble
10,MLAKSIPLGIYEKALPAGECWLERLKLAKALGFDFVEMSLDETDARLARLDWSPEQRLALVKAVAETGVRVPSMCLSAHRRFPLGSEDDAVRHQGLEIMRKAIQLAQDVGIRVIQLAGYDVYYQQANDETRRRFRDGLKQSVEMASRAQVTLAMEIMDYPLMNSISKALGYAHYLNNPWFQLYPDIGNLSAWDNDVQMELKAGSGHIVAVHVKDTKPGVFKNVPFGEGVVDFERCFETLKQTGYCGPYLIEMWSETSADPLAEVAKARDWVKARMARAGLMEAA,not soluble
11,MLARGKTNLKIEEIRMHKHHEIHRVKPLMPALCRIRQGKKVINWETHTLTVDNNQIILFPCGYEFYIENYPEAGLYLAEMLYLPIDLIESFQKLYTVTDQIRNKTSFFLPQNPELIYCWEQLKTSVSRGFSTKIQEHLAMGVLLSLGVNHVNHLLLSYSKQSLISRCYNLLLSEPGTKWTANKVARYLYISVSTLHRRLASEGVSFQSILDDVRLNNALSAIQTTVKPISEIARENGYKCPSRFTERFHNRFNITPREIRKASRE,soluble
12,MLARLVLGTSGRAALGSVEPALGGLKSIWRCSQAFCSTPKGVTYRELKSLLNSKDIMLIDVRNTLEILEQGKIPGSINIPLDEVGEALQMNPVDFKEKYCQVKPSKSDRLVFSCLAGVRSKKAMDTAISLGFNSAQHYAGGWKEWVTYEISEEKQES,soluble
13,MLDLQGLEEIANVQMQLENIISKLNIPIIQKGVFDNEGYLKSIMRGMRDYICFKTSKKKYKTIKAQNVIIHPGSLISTDSVKYFVAGEIIETTKMYARSIGVLKKEWIDDIILNEEFKHNDISSKELEHHHHHH,not soluble
14,MLDLRFQRLHGKTTLTTRHHVGLLTVQRPFYPEEETCHLCLLHPPGGIVGGDELIINAIIDSDCHTLITMPGASKFYRSSGAQAHLQQNLTLCNNATLEWLPQDSIFFPGAHATLHTVFHLSSSSTLLAWDLLCLGRPVIGETFSHGTLANRLEIWVDGSPLLIERLHVANGELTCVARKPWVGTMLFYLGNETQLEDIREKLTPLENYAGATLTDGLLTVRFLSDDNLRCQ,not soluble
15,MLEAKNLTCIRDDRCLFQQLSFCIAPGEIVQIEGPNGAGKTSLLRILAGLAEADEGQVNWRDKNIRRDRAKYHQDLLFLGHQPGIKSVLTPFENLLFYQSVFQKVDSAAIWQALAQVGLVGYEDLPVSQLSAGQQRRVALARLWLSPAPLWILDEPLTAIDKQGVSTLLALFVQHAAKGGMVLLTTHQDLGAVSHNVRKICLANTQEKSCLSACCAVN,not soluble
16,MLEELGKVVEFKGKGVELHLDGQGEPFLYPYMEYFLEKASRMKGVEVVSIQSNGTLLTEEKISAIEDYVTRINLSLSSLDEKTAKTLHGAYSVKKVKEVAEMIASSKMDLLIAPVWVPGYNDREIPKIIEFALEIGAGKKYPPLGIQKYIPYRYGRKAGKSMPFKEFYRRLEEYEKEYGVKLVLGPEDFGMEKRPK,not soluble
17,MLEKYGRCRKRRLLKEVVLILLVAAVQPVLSSSKSTPEAQLTDVELTCPDDWIRHGTKCYLPFNIHQSWPFAMTTCQRYGSTLAKIQTGSENQFIASLLSKPGKPTEGKEYWIGLTVEVLDDDELYLWSDGTPTSRYVGFWRQDQPNFLNGSCALGKVERKDLEWRLDTCNLLRRFVCERPACVQGSYFCSSGSCISESKKCNGHNDCDDGSDEQNCPSAFQPNCRTYEKGESGQLSSTNYPNSYDPNLNCRHVLEGPINSRIELTIEHFETEPDFDILTVLDGGPAENSTTVIKRLSGSMETVQTITSATNMMIVQFRTDAQSNARGWQLKWRAVPFTCGGHFTAQAYIQSFVSPGYPKTFANGAECVWTVESTPGQVVSLIMKSGKTWG,not soluble
18,MLEVDVVRISVIVPIYNVKLYIERCVRSLMEQTLENIEFIFVNDCTPDDSMDILHYVLEEYPKRREQIKIIEHETNRGISAVRNTGLKNATGQYIIYCDSDDWVEKNMYEKLLVKALETSADIVGCDFFDDYVAHSTIRKQLFPQQSEKCVKKMLRGELHCGTWNKLVIKSLYERTKIDFPEGINMWEDVSTIIPLCFHATKIDYIPEALYHYIHHNVSSYTYSVTEKSLENLVASIQLLESFFLTNQCFKTFGEDLCFMKLTVKLNLLLGSKGELQKKRNMLYSSANRYIFSYSGMSWYWKIALWVASKKMLFCFNVMSCIERIIKKWKLEHHHHHH,not soluble
19,MLFDSLPRPSERIAPGVAHLPGWLGVDKQAELVREIREIARTYADTPMAMLRPTLKSGGQMSVYQLHLGRYWHYPSYRYIDKIAGTTVPPVPDSLAALAPEALRAAAEVAEELAPWVETFVPEMVLVNYYPPGSRMGMHVDEFEESRAPVISVSIGDEALFRMGHTESRTQPWDDVTLCSGDLVVFGGPKRFAYHGVVRVNDATLPDGCGLEQGRINITIRQVSAAPNVQGR,not soluble
20,MLFNFREKLNSRKFLVTAEVSPPKGTRFSASLEDASQLKGIADALNVTDNQCSIMHMSSLAFSKLLLDEGHEPIMQLTCRDRNRIGLQSDLLGAYALGIRNICLMTGDYPTCGDHPGSKPVYDVDSVQLIELVRKLDTGVDFAGNKLDGGTSFCAGAVSGIDPEKTMQLIKLQKKVKCGADFIQTQAVYDIGMFEEFMDAVNYLEVPVIAGLIPLKSLGMAEFMNKNISGIHVPEEIMLRMKDASSPMEEGLLIASETIKELTKLSRGIHVMPIGSHRNTARLLSLAGISQ,not soluble
21,MLFTISENVKEAAQYFVEYKIQSVSDLKEFARVMKEYERKGDSFIHELVVQLNKTFITPIEREDIHQLAMKMDDVLDGFEQCSARFEMFSFTEIDEHMAKFFDYIYQSTIEIVHALELLANKKLLDMRQHAIKIKDYETKCDEILRASIKNLFVTQKDPIKIIQYKELYEMLEEIADSCEDVANTLETIIMRNA,not soluble
